For this series, the target named is Thrombin (human alpha-thrombin) (Homo sapiens, UniProt P00734;P00734 P00734:328-363,P00734:364-622). Briefly: nanopore without motor protein; lower-current events with increasing thrombin concentration.

Results on 1 molecule are retold here after patent publication US20250283153 (published 2025).

B1: 29-mer thrombin-binding aptamer (TBA) with 30xT threading strand (ssDNA)
DNA: TTTTTTTTTTTTTTTTTTTTTTTTTTTTTTAGTCCGTGGTAGGGCAGGTTGGGGTGACT
B1: the binding result is reported as “binds”.
